This passage reports proliferation of BaF3/CRF2-4/zcytor11 cells (Alamar Blue), IL-TIF-CEE results from US20030077706A1.

In this assay the target is CRF2-4/zcytor11 heterodimeric receptor (on BaF3/CRF2-4/zcytor11 cells) (human) (UniProt Q08334). Put plainly: cell-based or functional assay.
Chain of CRF2-4/zcytor11 heterodimeric receptor (on BaF3/CRF2-4/zcytor11 cells) (human) (Q08334 20-325 limits assumed, chain 1 of 2): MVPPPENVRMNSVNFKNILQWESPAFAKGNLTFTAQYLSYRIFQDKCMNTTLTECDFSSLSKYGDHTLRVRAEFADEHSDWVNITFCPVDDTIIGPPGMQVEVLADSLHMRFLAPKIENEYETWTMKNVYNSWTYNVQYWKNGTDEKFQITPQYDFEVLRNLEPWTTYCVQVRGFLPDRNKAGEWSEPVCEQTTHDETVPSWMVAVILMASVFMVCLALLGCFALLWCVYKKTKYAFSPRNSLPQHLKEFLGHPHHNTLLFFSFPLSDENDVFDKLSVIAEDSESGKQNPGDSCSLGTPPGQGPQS
Chain of CRF2-4/zcytor11 heterodimeric receptor (on BaF3/CRF2-4/zcytor11 cells) (human) (chain, as listed by the source limits assumed, chain 2 of 2): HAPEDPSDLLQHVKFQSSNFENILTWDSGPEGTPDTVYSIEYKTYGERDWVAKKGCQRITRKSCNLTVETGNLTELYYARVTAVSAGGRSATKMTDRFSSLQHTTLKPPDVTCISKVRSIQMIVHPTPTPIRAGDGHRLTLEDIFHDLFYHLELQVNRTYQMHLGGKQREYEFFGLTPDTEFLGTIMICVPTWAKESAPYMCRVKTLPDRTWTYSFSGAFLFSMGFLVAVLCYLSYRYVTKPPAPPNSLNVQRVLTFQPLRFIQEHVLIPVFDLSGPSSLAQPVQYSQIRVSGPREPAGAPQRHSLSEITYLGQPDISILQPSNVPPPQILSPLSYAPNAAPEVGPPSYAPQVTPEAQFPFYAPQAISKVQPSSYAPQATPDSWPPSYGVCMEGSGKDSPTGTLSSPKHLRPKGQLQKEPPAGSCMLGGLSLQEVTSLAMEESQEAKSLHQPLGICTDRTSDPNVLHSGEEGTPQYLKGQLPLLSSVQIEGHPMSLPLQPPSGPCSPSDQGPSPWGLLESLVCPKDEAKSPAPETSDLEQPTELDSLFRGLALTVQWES

Substance “purified human IL-TIF-CEE (IL-TIF with C-terminal Glu-Glu tag) (from UniProt Q9GZX6 34-179) (ligand)” returned a proliferation of BaF3/CRF2-4/zcytor11 cells (Alamar Blue), IL-TIF-CEE at 0.06 ng/ml (fold induction) of 2 and a proliferation of BaF3/CRF2-4/zcytor11 cells (Alamar Blue), IL-TIF-CEE at 50 ng/ml (fold over background) of 15.
